Experimental data reported in the supplement of paper PMC9233669.
Variants at the floor of the assay were thinned out.

How the values were obtained:
biotinyl-Leu-oxazolone = test: self-aminoacylation, catalytic enhancement (BLO) (fold over background); higher = more active; k-Seq, kA / k0A0; sequences stand for … in GGGAAUGGAUCCACAUCUACGAAUUC…UUCACUGCAGACUUGACGAAGCUG
Procedure, shortened: (§1)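 Catalytic enhancement equals the median kA over the uncatalyzed rate, the latter read from the low-activity peak of a bimodal Gaussian fit. Values of kA came from fitting each sequence's fraction reacted to a pseudo-first-order model, with 1000 bootstraps. Reacted RNA was captured with streptavidin and quantified by triplicate qPCR and Illumina sequencing after 90 minutes at room temperature with 2–1250 μM biotinyl-aminoacyl-oxazolone and 0.43 μM mutagenized RNA pools bearing a 21-nt variable region.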

biotinyl-Met-oxazolone = test: self-aminoacylation, catalytic enhancement (BMO) (fold over background); higher = more active; k-Seq, kA / k0A0; sequences stand for … in GGGAAUGGAUCCACAUCUACGAAUUC…UUCACUGCAGACUUGACGAAGCUG
Procedure, shortened: as §1

biotinyl-Val-oxazolone = test: self-aminoacylation, catalytic enhancement (BVO) (fold over background); higher = more active; k-Seq, kA / k0A0; sequences stand for … in GGGAAUGGAUCCACAUCUACGAAUUC…UUCACUGCAGACUUGACGAAGCUG
Procedure, shortened: as §1

biotinyl-Phe-oxazolone = test: self-aminoacylation, catalytic enhancement (BFO) (fold over background); higher = more active; k-Seq, kA / k0A0; sequences stand for … in GGGAAUGGAUCCACAUCUACGAAUUC…UUCACUGCAGACUUGACGAAGCUG
Procedure, shortened: as §1

biotinyl-Trp-oxazolone = test: self-aminoacylation, catalytic enhancement (BWO) (fold over background); higher = more active; k-Seq, kA / k0A0; sequences stand for … in GGGAAUGGAUCCACAUCUACGAAUUC…UUCACUGCAGACUUGACGAAGCUG
Procedure, shortened: as §1

biotinyl-Ile-oxazolone = test: self-aminoacylation, catalytic enhancement (BIO) (fold over background); higher = more active; k-Seq, kA / k0A0; sequences stand for … in GGGAAUGGAUCCACAUCUACGAAUUC…UUCACUGCAGACUUGACGAAGCUG
Procedure, shortened: as §1

| Sequence | self-aminoacylation (biotinyl-Leu-oxazolone) | self-aminoacylation (biotinyl-Met-oxazolone) | self-aminoacylation (biotinyl-Val-oxazolone) | self-aminoacylation (biotinyl-Phe-oxazolone) | self-aminoacylation (biotinyl-Trp-oxazolone) | self-aminoacylation (biotinyl-Ile-oxazolone) |
| --- | --- | --- | --- | --- | --- | --- |
| AUGUUUGCUAAUAGUAGCAAG [Fam3.1 aminoacylation ribozyme variant] | 0.912 | 1.34 | 1.36 | 1.67 | 0.911 | 1.29 |
| AUGUUUGCUAAUAGUCCCAAG [Fam3.1 aminoacylation ribozyme variant] | 0.966 | 0.965 | 1.11 | 2.79 | 1.25 | 1.08 |
| AUGUUUGCUAAUAGUCGCAAA [Fam3.1 aminoacylation ribozyme variant] | 1.54 | 1.75 | 1.59 | 4.87 | 2.71 | 2.2 |
| AUGUUUGCUAAUAGUCUCAAG [Fam3.1 aminoacylation ribozyme variant] | 1.01 | 1.12 | 1.04 | 5.12 | 1.43 | 1.27 |
| AUUAACCAGGUCAUCGAGUGA [Fam2.1 aminoacylation ribozyme variant] | 5.32 | 5.17 | 2.8 | 22.2 | 6.86 | 3.17 |
| AUUAACCUAGCUCAUCGGGUG [Fam2.2 aminoacylation ribozyme variant] | 1.65 | 1.96 | 1.79 | 8.47 | 1.86 | 1.79 |
| AUUAACCUAGGCCAUCGGGUG [Fam2.2 aminoacylation ribozyme variant] | 4.62 | 3.21 | 2.45 | 15.1 | 3.52 | 2.31 |
| AUUAACCUAGGUCAUCGGGUA [Fam2.2 aminoacylation ribozyme variant] | 46.4 | 33.2 | 13.9 | 262 | 20.3 | 17.7 |
| AUUAACCUAGGUCUUCGGGUG [Fam2.2 aminoacylation ribozyme variant] | 3.58 | 2.98 | 2.73 | 17.9 | 2.95 | 2.64 |
| AUUAACCUCGUCAUCGAGUGA [Fam2.1 aminoacylation ribozyme variant] | 2.82 | 3.27 | 2.25 | 3.89 | 4.68 | 2.33 |
| AUUAACCUGGUCAUCAAGUGA [Fam2.1 aminoacylation ribozyme variant] | 2.94 | 3.1 | 1.85 | 4.41 | 3.18 | 1.76 |
| AUUAACCUGGUCAUCGACUGA [Fam2.1 aminoacylation ribozyme variant] | 0.938 | 0.801 | 0.746 | 0.674 | 0.612 | 0.842 |
| AUUAACCUGGUCAUCGAGUCA [Fam2.1 aminoacylation ribozyme variant] | 0.662 | 0.763 | 0.711 | 0.5 | 0.405 | 0.698 |
| AUUAACCUGGUCAUCGAUUGA [Fam2.1 aminoacylation ribozyme variant] | 0.88 | 0.959 | 0.818 | 0.76 | 1.15 | 0.963 |
| AUUAACCUGGUCAUUGAGUGA [Fam2.1 aminoacylation ribozyme variant] | 9.89 | 9.39 | 4.05 | 53.1 | 12 | 4.38 |
| AUUAACCUGGUCUUCGAGUGA [Fam2.1 aminoacylation ribozyme variant] | 4.66 | 4.3 | 2.71 | 13 | 6.87 | 2.4 |
| AUUAACCUGGUUAUCGAGUGA [Fam2.1 aminoacylation ribozyme variant] | 9.67 | 8.32 | 3.81 | 41.7 | 10.7 | 4.13 |
| AUUAACCUGUUCAUCGAGUGA [Fam2.1 aminoacylation ribozyme variant] | 4.93 | 4.16 | 2.4 | 15.8 | 5.29 | 2.4 |
| AUUAAUCUAGGUCAUCGGGUG [Fam2.2 aminoacylation ribozyme variant] | 4.65 | 3.43 | 2.72 | 15 | 4.05 | 2.73 |
| AUUACACUAGUCAUCGAGUGA [Fam2.1 aminoacylation ribozyme variant] | 5.19 | 4.79 | 2.51 | 16.9 | 6.55 | 3.05 |
| AUUACACUGCUCAUCGAGUGA [Fam2.1 aminoacylation ribozyme variant] | 1.72 | 1.8 | 1.61 | 1.51 | 2.31 | 1.55 |
| AUUACACUGGGCAUCGAGUGA [Fam2.1 aminoacylation ribozyme variant] | 6.5 | 5.92 | 3.44 | 27.1 | 7.85 | 3.53 |
| AUUACACUGGUCAACGAGUGA [Fam2.1 aminoacylation ribozyme variant] | 5.07 | 5.3 | 2.79 | 22.6 | 7.54 | 2.78 |
| AUUACACUGGUCAUCGAAUGA [Fam2.1 aminoacylation ribozyme variant] | 0.978 | 0.931 | 1.25 | 0.652 | 1.15 | 1.12 |
| AUUACACUGGUCUUCGAGUGA [Fam2.1 aminoacylation ribozyme variant] | 4.42 | 3.75 | 2.87 | 18.8 | 6.04 | 2.75 |
| AUUACACUGGUGAUCGAGUGA [Fam2.1 aminoacylation ribozyme variant] | 4.21 | 4.88 | 2.42 | 20.9 | 5.92 | 2.33 |

| Sequence | self-aminoacylation (biotinyl-Leu-oxazolone) | self-aminoacylation (biotinyl-Met-oxazolone) | self-aminoacylation (biotinyl-Val-oxazolone) | self-aminoacylation (biotinyl-Phe-oxazolone) | self-aminoacylation (biotinyl-Trp-oxazolone) | self-aminoacylation (biotinyl-Ile-oxazolone) |
| --- | --- | --- | --- | --- | --- | --- |
| AUUACACUGUUCAUCGAGUGA [Fam2.1 aminoacylation ribozyme variant] | 2.97 | 3.76 | 2.17 | 3.06 | 4.78 | 2.01 |
| AUUACCAUGAUCAUCGAGUGA [Fam2.1 aminoacylation ribozyme variant] | 11.6 | 11.1 | 5.53 | 56.1 | 14.6 | 5.54 |
| AUUACCAUGGACAUCGAGUGA [Fam2.1 aminoacylation ribozyme variant] | 6.81 | 6.51 | 3.14 | 24.1 | 8.17 | 2.91 |
| AUUACCAUGGCCAUCGAGUGA [Fam2.1 aminoacylation ribozyme variant] | 3.1 | 2.67 | 2.27 | 2.77 | 3.98 | 1.83 |
| AUUACCAUGGUAAUCGAGUGA [Fam2.1 aminoacylation ribozyme variant] | 8.44 | 8.72 | 3.89 | 50.3 | 10.7 | 3.78 |
| AUUACCAUGGUCAACGAGUGA [Fam2.1 aminoacylation ribozyme variant] | 7.89 | 7.33 | 4.12 | 32.6 | 10 | 4.28 |
| AUUACCAUGGUCAUCGAGUGU [Fam2.1 aminoacylation ribozyme variant] | 4.6 | 4.53 | 2.78 | 4.69 | 6.03 | 2.55 |
| AUUACCAUGUUCAUCGAGUGA [Fam2.1 aminoacylation ribozyme variant] | 7.2 | 7.52 | 3.79 | 36.4 | 9.17 | 4.04 |
| AUUACCCACGUCAUCGAGUGA [Fam2.1 aminoacylation ribozyme variant] | 4.38 | 4.44 | 2.9 | 15.6 | 4.53 | 2.46 |
| AUUACCCAGGACAUCGAGUGA [Fam2.1 aminoacylation ribozyme variant] | 7.26 | 8.33 | 3.9 | 56.4 | 8.66 | 3.56 |
| AUUACCCAGGGCAUCGAGUGA [Fam2.1 aminoacylation ribozyme variant] | 6.33 | 6.06 | 3.57 | 21.4 | 6.92 | 3.27 |
| AUUACCCAGGUCAACGAGUGA [Fam2.1 aminoacylation ribozyme variant] | 6.2 | 7.03 | 3.76 | 24.9 | 7.71 | 3.57 |
| AUUACCCAGGUCAUAGAGUGA [Fam2.1 aminoacylation ribozyme variant] | 9.64 | 10.7 | 5.27 | 37.5 | 11.3 | 4.85 |
| AUUACCCAGGUCAUCGAGUAA [Fam2.1 aminoacylation ribozyme variant] | 1.16 | 1.54 | 1.06 | 1.09 | 1.57 | 1.49 |
| AUUACCCAGGUCAUCGAGUGA [Fam2.1 aminoacylation ribozyme variant] | 6.08 | 5.79 | 3.55 | 22.8 | 6.89 | 3.21 |
| AUUACCCCGCUCAUCGAGUGA [Fam2.1 aminoacylation ribozyme variant] | 1.99 | 1.89 | 1.73 | 6.93 | 1.17 | 1.16 |
| AUUACCCCGGACAUCGAGUGA [Fam2.1 aminoacylation ribozyme variant] | 4.04 | 4.74 | 2.48 | 19.6 | 5.47 | 2.38 |
| AUUACCCCGGCCAUCGAGUGA [Fam2.1 aminoacylation ribozyme variant] | 5.86 | 4.03 | 4.34 | 20.7 | 5.24 | 2.68 |
| AUUACCCCGGUAAUCGAGUGA [Fam2.1 aminoacylation ribozyme variant] | 4.59 | 5.18 | 2.85 | 26.7 | 5.41 | 2.73 |
| AUUACCCCGGUCACCGAGUGA [Fam2.1 aminoacylation ribozyme variant] | 13 | 12.7 | 4.77 | 95.8 | 12.3 | 5.59 |
| AUUACCCCGGUCAUCGAGUAA [Fam2.1 aminoacylation ribozyme variant] | 1.9 | 1.2 | 1.26 | 5.28 | 2.01 | 1.53 |
| AUUACCCCGGUCAUCGAGUCA [Fam2.1 aminoacylation ribozyme variant] | 1.06 | 0.928 | 0.988 | 1.3 | 0.734 | 1.24 |
| AUUACCCCGGUCUUCGAGUGA [Fam2.1 aminoacylation ribozyme variant] | 4.72 | 4.71 | 3.4 | 29.3 | 6.46 | 3.2 |
| AUUACCCCGGUGAUCGAGUGA [Fam2.1 aminoacylation ribozyme variant] | 3.33 | 3.73 | 2.23 | 21.5 | 4.35 | 2.23 |
| AUUACCCCGGUUAUCGAGUGA [Fam2.1 aminoacylation ribozyme variant] | 6.39 | 6.01 | 2.74 | 32.1 | 5.95 | 2.72 |
